Data published in patent publication US20070292909A1 (RIKEN, published 2007).

Legend:
[1] = target: the molecule itself; assay: ultracentrifugal molecular weight measurement of self-association
[2] = target: the molecule itself; assay: ultracentrifugal analysis of self-association: 28 kDa measured, 26 kDa predicted
Experimental: An mKO protein solution with the composition consisting of 150 mM KCl and 50 mM HEPES-KOH (pH 7.4) was prepared. The molecular weight of mKO was determined by ultracentrifugal analysis. The above solution was centrifuged with an ultracentrifuge XL-1 (Beckman Coulter) at 25,000 rpm for 22 hours, so as to measure absorption at 540 nm around the maximum absorption (548 nm) of mKO. From the measurement results, the molecular weight of mKO was calculated to be 28 kDa (FIG. 3). This value was almost the same as 26 kDa predicted from the amino acid sequence, and thus it was confirmed that mKO exists in the form of a monomer.

Protein	binding result [1]	binding result [2]
cmkeima 620 (other) MRGSHHHHHHGMASMTGGQQMGRDLYDDDDKDPMVSVIAKQMTYKVYMSGTVNGHYFEVEGDGKGKPYEGEQTVKLTVTKGGPLPFAWDILSPQFQYGSIPFTKYPEDIPDYFKQSFPEGYTWERSMNFEDGAVCTVSNDSSIQGNCFIYNVKISGENFPPNGPVMQKKTQGWEPSTERLFARDGMLIGNDYMALKLEGGGHYLCEFKSTYKAKKPVRMPGRHEIDRKLDVTSHNRDYTSVEQCEIAIARHSLLG	no binding	
monomerized Kusabira-Orange (mKO) (other, also called KO mutant) MVSVIKPEMKMRYYMDGSVNGHEFTIEGEGTGRPYEGHQEMTLRVTMAKGGPMPFAFDLVSHVFCYGHRPFTKYPEEIPDYFKQAFPEGLSWERSLEFEDGGSASVSAHISLRGNTFYHKSKFTGVNFPADGPIMQNQSVDWEPSTEKITASDGVLKGDVTMYLKLEGGGNHKCQFKTTYKAAKKILKMPGSHYISHRLVRKTEGNITELVEDAVAHS		no binding
